Laboratory results reported in paper PMC3792054, “A Remote Palm Domain Residue of RB69 DNA Polymerase Is Critical for Enzyme Activity and Influences the Conformation of the Active Site”.

T1: RB69 DNA polymerase Pol+Exo+ (wild type gp43) (bacteriophage RB69, UniProt Q38087 1-903)
T1 sequence: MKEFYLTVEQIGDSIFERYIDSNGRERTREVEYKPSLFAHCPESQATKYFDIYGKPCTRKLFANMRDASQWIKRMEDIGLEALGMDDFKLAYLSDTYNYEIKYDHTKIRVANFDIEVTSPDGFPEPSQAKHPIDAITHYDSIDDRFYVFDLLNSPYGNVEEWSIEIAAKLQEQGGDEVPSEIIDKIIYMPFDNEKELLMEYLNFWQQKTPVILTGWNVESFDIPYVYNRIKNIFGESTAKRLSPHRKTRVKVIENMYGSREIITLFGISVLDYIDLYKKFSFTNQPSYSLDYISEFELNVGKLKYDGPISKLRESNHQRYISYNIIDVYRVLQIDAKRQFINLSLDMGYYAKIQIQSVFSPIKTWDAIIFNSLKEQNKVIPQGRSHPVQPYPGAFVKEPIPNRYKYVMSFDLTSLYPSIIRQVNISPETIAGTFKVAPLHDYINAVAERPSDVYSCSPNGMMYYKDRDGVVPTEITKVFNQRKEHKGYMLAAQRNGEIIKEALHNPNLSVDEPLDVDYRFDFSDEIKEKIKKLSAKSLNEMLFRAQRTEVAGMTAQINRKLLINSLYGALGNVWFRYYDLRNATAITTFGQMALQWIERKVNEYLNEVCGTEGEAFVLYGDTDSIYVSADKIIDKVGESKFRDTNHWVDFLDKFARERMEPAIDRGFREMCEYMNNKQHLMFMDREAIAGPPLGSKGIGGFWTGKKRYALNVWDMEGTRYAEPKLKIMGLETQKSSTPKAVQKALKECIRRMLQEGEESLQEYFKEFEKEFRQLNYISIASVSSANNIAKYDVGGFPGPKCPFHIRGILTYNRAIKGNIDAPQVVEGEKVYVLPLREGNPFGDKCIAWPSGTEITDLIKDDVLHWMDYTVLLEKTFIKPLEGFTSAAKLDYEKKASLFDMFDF

T2: RB69 PolD714A Exo+ (bacteriophage RB69, UniProt Q38087 1-903, D714A)
T2 sequence: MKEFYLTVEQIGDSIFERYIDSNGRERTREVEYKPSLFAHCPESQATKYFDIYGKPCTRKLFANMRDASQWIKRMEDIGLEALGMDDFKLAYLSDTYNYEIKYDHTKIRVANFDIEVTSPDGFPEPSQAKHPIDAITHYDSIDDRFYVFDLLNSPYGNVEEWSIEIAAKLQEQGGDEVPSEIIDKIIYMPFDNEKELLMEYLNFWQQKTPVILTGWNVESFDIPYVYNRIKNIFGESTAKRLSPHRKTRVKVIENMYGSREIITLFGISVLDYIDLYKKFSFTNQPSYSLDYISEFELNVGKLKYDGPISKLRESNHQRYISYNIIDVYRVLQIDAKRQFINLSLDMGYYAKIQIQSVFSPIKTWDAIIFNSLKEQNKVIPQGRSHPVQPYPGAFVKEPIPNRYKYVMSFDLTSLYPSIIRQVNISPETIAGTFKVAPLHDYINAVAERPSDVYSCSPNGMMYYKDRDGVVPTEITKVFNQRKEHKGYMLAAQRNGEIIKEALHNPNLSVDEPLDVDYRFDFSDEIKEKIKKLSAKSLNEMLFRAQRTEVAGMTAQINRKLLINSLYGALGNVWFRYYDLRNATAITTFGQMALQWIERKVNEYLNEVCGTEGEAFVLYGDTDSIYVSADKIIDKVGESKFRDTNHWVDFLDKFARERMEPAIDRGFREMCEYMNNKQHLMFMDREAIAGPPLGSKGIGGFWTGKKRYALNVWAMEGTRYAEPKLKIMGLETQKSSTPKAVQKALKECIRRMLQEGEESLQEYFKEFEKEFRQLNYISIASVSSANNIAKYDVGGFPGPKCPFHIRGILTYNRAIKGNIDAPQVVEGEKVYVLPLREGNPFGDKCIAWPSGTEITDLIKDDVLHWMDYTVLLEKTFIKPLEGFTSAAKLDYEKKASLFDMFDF

T3: RB69 PolD714A Exo- (bacteriophage RB69, UniProt Q38087 1-903, D222A;D327A;D714A)
T3 sequence: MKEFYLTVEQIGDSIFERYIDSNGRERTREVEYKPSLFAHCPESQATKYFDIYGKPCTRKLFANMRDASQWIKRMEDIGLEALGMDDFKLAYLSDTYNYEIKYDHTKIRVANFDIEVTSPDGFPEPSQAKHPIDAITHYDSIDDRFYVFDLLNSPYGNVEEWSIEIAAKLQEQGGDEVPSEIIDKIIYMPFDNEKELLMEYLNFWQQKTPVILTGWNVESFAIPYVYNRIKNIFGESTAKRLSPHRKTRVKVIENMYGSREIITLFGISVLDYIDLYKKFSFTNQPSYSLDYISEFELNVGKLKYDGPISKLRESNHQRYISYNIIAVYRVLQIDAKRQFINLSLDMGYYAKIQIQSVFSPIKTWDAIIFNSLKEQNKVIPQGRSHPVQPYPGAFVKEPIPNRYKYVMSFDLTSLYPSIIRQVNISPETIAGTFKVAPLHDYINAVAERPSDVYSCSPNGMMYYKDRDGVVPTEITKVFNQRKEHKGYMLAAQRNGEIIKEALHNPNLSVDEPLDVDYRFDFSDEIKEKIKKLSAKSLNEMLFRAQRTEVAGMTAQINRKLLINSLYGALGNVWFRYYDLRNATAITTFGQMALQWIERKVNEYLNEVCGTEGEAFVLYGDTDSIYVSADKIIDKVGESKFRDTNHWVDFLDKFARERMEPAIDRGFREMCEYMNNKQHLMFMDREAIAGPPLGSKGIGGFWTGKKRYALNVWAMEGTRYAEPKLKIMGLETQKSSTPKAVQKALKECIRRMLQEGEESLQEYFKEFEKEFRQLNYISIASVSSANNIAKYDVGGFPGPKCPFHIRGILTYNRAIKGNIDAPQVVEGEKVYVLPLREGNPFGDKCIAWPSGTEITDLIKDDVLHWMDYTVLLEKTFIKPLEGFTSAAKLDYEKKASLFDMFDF

T4: RB69 Pol+Exo- (bacteriophage RB69, UniProt Q38087 1-903, D222A;D327A)
T4 sequence: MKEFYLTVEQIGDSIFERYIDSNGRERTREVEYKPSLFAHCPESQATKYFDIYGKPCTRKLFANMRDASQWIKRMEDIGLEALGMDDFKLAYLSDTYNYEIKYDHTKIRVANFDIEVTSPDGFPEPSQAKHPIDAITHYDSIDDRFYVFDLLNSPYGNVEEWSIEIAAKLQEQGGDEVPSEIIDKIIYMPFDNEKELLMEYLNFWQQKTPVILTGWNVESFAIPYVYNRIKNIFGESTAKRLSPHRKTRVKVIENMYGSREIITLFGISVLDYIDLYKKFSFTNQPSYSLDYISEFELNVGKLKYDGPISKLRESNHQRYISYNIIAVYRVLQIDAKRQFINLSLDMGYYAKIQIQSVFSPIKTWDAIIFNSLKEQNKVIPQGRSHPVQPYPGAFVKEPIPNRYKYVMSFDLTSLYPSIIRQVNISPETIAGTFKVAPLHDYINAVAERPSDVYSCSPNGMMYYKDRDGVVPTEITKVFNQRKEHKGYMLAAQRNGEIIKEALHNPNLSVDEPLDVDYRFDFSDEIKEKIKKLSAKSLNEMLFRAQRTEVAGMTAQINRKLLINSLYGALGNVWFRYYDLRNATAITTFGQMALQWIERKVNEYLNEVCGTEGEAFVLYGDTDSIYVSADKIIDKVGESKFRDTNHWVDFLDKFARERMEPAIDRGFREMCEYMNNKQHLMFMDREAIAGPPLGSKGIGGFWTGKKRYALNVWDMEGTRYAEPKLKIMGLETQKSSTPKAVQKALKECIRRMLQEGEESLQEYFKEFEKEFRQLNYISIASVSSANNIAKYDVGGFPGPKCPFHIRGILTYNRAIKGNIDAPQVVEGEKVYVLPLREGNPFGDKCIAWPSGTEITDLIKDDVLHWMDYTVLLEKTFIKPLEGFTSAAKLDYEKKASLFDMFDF

T5: RB69 PolY567A/D714A Exo- (bacteriophage RB69, UniProt Q38087 1-903, D222A;D327A;Y567A;D714A)
T5 sequence: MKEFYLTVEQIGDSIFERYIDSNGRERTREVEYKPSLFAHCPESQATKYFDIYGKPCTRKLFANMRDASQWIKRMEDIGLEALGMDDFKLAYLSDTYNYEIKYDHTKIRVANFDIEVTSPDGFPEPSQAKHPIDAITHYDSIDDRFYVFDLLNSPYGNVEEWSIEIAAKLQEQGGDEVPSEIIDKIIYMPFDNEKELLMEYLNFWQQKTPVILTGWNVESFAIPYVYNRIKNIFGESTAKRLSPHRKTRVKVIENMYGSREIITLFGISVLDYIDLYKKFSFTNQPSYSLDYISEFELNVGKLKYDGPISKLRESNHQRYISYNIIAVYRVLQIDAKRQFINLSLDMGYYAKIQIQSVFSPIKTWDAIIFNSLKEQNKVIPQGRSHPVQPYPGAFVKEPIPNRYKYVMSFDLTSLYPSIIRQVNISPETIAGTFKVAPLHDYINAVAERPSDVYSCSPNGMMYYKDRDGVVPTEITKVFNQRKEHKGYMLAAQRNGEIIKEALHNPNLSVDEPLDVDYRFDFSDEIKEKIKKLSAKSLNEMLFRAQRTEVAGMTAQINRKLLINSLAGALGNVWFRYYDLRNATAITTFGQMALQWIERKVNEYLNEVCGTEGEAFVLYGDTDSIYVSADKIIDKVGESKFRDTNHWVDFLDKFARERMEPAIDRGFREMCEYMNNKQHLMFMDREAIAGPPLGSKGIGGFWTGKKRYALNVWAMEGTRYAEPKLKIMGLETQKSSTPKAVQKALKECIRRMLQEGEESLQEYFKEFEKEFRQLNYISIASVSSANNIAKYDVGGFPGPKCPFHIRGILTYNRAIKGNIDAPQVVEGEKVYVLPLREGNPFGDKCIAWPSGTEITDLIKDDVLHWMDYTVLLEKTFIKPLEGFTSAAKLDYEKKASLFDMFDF


Key:
[1] = target: T1, RB69 DNA polymerase Pol+Exo+ (wild type …); test: EMSA; apparent Kd; EMSA: 50 nM DNA, 7.5-500 nM Exo+ or 2.5-400 nM Exo- polymerase, native 6% PAGE; buffer, pH and temperature as in ref. 16; settings: protein: recombinant; label: 5'-32P on primer (20-mer); 5' overhang 6 nt on template; other end blunt
[2] = target: T2, RB69 PolD714A Exo+; test: as above; settings: protein: recombinant; label: 5'-32P on primer (20-mer); 5' overhang 6 nt on template; other end blunt
[3] = target: T3, RB69 PolD714A Exo-; test: EMSA; almost same affinity as Pol+Exo-; value in Table 2/Figure 2E not in material; EMSA: 50 nM DNA, 7.5-500 nM Exo+ or 2.5-400 nM Exo- polymerase, native 6% PAGE; buffer, pH and temperature as in ref. 16; settings: protein: recombinant; label: 5'-32P on primer (20-mer); 5' overhang 6 nt on template; other end blunt
[4] = target: T4, RB69 Pol+Exo-; test: EMSA; binds tighter than Pol+Exo+; value in Table 2/Figure 2E not in material; EMSA: 50 nM DNA, 7.5-500 nM Exo+ or 2.5-400 nM Exo- polymerase, native 6% PAGE; buffer, pH and temperature as in ref. 16; settings: protein: recombinant; label: 5'-32P on primer (20-mer); 5' overhang 6 nt on template; other end blunt
[5] = target: T5, RB69 PolY567A/D714A Exo-; test: X-ray crystallography; dGpnpp, Ca2+, Na+; ternary complex I, 2.30 A; settings: protein: recombinant; template 5' overhang 4 nt and 3' overhang 1 nt

Binder	Kd [1] [µM]	Kd [2] [µM]	binding result [3]	binding result [4]	binding result [5]
20*/26-mer primer-template (dsDNA) DNA 1: AGCTACGCGGCTGTCATAAG DNA 2: TTGCGTCTTATGACAGCCGCGTAGCT	0.176	0.141	binds	binds	–
13/18-mer primer-template (crystal) (dsDNA) DNA 1: GCGGACTGCTTAC DNA 2: TCACGTAAGCAGTCCGCG	–	–	–	–	binds
